Results taken from US20210340271A1 (PROMAB BIOTECHNOLOGIES, published 2021).

Tests used:
[1] = molecular target: negative unrelated control protein; test: ELISA, negative control antigen
[2] = molecular target: T1, CD18 on HEK293-CD18 cells (UniProt P05107 23-769); test: immunofluorescent staining of transfected HEK293 cells
T1 construct: whole, on cells; also called negative control protein CD18
T1 sequence (P05107 23-769 limits assumed): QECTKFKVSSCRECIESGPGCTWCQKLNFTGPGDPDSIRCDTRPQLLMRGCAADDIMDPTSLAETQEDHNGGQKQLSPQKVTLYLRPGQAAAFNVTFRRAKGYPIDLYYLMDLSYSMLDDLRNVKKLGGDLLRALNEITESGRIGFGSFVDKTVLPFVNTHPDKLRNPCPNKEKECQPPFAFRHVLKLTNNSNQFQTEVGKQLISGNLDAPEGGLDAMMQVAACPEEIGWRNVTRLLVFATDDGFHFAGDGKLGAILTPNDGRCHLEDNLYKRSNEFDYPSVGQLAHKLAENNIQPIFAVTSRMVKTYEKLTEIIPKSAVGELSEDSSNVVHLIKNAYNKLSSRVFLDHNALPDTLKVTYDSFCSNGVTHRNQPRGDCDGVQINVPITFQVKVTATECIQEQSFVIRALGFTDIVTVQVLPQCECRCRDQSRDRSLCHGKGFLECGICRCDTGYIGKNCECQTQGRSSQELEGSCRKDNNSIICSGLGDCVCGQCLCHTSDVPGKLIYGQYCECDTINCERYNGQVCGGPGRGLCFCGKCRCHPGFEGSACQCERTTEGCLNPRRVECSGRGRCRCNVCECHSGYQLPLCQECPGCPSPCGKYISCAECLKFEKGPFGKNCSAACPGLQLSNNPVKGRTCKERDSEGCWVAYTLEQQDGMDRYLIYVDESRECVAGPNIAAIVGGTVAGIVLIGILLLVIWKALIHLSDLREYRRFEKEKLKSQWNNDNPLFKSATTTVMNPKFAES

B1: mouse monoclonal anti-human CD37 antibody, clone 2B8D12 (antibody, IgG1, V domains shown)
VH: QVKLDETGGGLVQPGRPMKLSCVASGFTFSDYWMNWVRQSPEKGLEWVAQIRDKPYNYETFYSDSVKGRFTISRDDSKSSVYLQMNNLGAEDMGIYYCTGSFAYWGQGTLVTVSA
VL: DIQMTQSPASLSASEGETVTITCRASGNIHNYLAWYQQKQGKSPQLLVYNAKTLPDGVPSRVSGSGSGTQYSLKINNLQPEDFGNYYCQQYWSTPYTFGGGSRLEIKR
notes: Mouse hybridoma antibody; also called antibody CD37; CD37 antibody (2B8D12)
[1]
  OD405: 0.098 OD405
[2]
  binding result: no binding
